Read-outs that look alike come from different tables or passages of the source.

The target of assay [1] is SV2C, the BoNT/A protein receptor, human (human (endogenous in hiPSC-derived motor neurons)) (UniProt Q496J9).
The target in assay [2] is SV2C, the BoNT/A protein receptor, rat (rat (endogenous in primary rat spinal cord cells)) (UniProt Q9Z2I6).
The target is the same in assay [3]. This is another data set of the same source.

Chain of UniProt Q9Z2I6 (Q9Z2I6 whole entry): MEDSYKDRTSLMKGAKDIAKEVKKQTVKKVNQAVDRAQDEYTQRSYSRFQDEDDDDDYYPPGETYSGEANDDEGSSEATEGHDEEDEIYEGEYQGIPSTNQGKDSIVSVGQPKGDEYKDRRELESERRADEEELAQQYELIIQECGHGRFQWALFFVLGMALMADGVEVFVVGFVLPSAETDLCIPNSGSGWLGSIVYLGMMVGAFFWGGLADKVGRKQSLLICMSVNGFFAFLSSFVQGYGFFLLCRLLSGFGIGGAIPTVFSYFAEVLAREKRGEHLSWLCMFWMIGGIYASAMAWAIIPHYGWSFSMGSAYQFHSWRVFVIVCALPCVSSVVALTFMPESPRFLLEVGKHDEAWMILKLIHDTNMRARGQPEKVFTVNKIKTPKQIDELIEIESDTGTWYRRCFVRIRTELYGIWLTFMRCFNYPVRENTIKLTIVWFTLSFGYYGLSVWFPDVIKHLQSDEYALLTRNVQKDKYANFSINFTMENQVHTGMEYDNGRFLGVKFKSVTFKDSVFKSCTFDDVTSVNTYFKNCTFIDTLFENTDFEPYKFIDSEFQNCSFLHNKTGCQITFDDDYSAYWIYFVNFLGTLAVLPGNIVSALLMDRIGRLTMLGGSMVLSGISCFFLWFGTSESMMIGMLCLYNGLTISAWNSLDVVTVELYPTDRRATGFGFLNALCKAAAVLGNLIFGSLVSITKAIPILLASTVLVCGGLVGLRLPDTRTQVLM
Chain of UniProt Q496J9 (Q496J9 whole entry): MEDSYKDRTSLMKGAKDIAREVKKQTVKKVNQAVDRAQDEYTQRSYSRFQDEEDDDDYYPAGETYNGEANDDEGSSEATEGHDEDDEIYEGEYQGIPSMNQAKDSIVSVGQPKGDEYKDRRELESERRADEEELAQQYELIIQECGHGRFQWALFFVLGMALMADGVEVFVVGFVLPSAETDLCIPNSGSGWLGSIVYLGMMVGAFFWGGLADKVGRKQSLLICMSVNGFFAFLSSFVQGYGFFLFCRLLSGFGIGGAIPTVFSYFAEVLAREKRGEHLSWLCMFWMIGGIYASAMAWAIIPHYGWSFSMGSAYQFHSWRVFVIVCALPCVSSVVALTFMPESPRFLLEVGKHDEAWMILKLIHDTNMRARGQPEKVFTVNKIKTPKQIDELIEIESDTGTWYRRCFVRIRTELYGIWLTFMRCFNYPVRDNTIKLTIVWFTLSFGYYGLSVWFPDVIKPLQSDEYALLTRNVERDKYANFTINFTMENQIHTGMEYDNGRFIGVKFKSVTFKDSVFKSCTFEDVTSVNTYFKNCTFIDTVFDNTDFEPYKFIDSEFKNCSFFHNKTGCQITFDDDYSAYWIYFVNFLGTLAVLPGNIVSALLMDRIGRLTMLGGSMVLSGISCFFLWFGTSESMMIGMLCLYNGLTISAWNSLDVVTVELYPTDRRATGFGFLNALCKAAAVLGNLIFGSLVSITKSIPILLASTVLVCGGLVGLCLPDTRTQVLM

For “Botulinum neurotoxin subtype A1 (BoNT/A1), 150-kDa holotoxin (from UniProt P0DPI0) (natural protein)”, the EC50 MN (SNAP-25 cleavage in hiPSC derived motor neurons, 48 h) in assay [1] was 0.07 pg/Well. The EC50 RSC (SNAP-25 cleavage in primary rat spinal cord cells, 48 h) in assay [2] was determined as 1 pg/Well; in assay [3], 1.1 pg/Well.

The values above are taken from publication PMC10055998.
